Experiments:
[1] = biological target: T1, TA-MUC1 (tumor-associated MUC1) on human tumor cell lines (human, UniProt P15941 24-1255, aberrant tumor-associated O-glycosylation); experiment: flow cytometry on HSC-4 cells, detection with PE-conjugated goat anti-human IgG
T1 construct: whole, on cells; also called cellular TA-MUC1; cell surface TA-MUC1
Method: (§1) N54Q and N54D were transiently expressed and purified by protein A chromatography. Binding of the two variants to cell surface TA-MUC1 was compared to PM with Fab glycosylation using two different carcinoma cell lines. The tongue squamous cell carcinoma line HSC-4 expresses TA-MUC1 to a medium degree and the ovarian carcinoma cell line CaOV-3 to a high degree. Tumor cells were incubated with antibodies in serial dilutions and bound antibodies were detected using a Phycoerythrin-conjugated goat anti-human IgG (heavy and light chain) antibody. A human IgG control was included to control for background staining. Binding was analyzed by flow cytometry.

[2] = biological target: T1, TA-MUC1 (tumor-associated MUC1) on …; experiment: saturation binding of 111In-labelled antibody on ZR-75-1 cells
Method: (§2) Binding of the Fab-deglycosylated version of the MUC1-specific antibody PankoMab (PM-N54Q) on TA-MUC-1 positive human tumor cell lines was evaluated using radiolabeled antibodies by saturated binding analysis on the human mamma carcinoma cell lines ZR-75-1 and MCF-7 in comparison to Fab-glycosylated PankoMab-GEX®. The antibodies were chelated with a 12-fold molar excess of p-SCN-Benzyl-DTPA in 50 mM sodium carbonate, 150 mM NaCl, pH 8.7, for 2 h at 37° C., followed by over-night incubation at 2-8° C. Free chelator was removed over desalting columns and dead-end filtration (50 kDa cut-off, 6× buffer exchange to PBS). The chelated antibodies were radiolabeled with carrier-free ¹¹¹In (2 μCi/μg antibody) for 1 h at 37° C. in 6 mM phosphate, 1.6 mM KCl, 80 mM NaCl, 0.2 M Na-acetate, 0.1 M HCl. The preparations were neutralized by addition of 8-9 fold volume of 10× concentrated PBS. About 1/50 volume of fetal bovine serum were added to the neutralized labelled antibody preparation. Per cell binding approach 1*10⁶ cells were used. Several concentrations of labelled antibodies were added to the pelleted cells (30-1000 ng/200 μL in 1% BSA/PBS). The resuspended cell-antibody mixtures were measured in a gamma-counter and incubated 1 h at 4° C. […] The cell pellet was then measured for bound ¹¹¹In-labelled antibody in a gamma counter. […]

[3] = biological target: T1, TA-MUC1 (tumor-associated MUC1) on …; experiment: flow cytometry on CaOV-3 cells, detection with PE-conjugated goat anti-human IgG
Method: as §1

[4] = biological target: T1, TA-MUC1 (tumor-associated MUC1) on …; experiment: saturation binding of 111In-labelled antibody on MCF-7 cells
Method: as §2

[5] = biological target: T1, TA-MUC1 (tumor-associated MUC1) on …; experiment: saturation binding of 111In-labelled antibody on ZR-75-1 and MCF-7 cells
Method: as §2

T1 sequence (P15941 24-1255): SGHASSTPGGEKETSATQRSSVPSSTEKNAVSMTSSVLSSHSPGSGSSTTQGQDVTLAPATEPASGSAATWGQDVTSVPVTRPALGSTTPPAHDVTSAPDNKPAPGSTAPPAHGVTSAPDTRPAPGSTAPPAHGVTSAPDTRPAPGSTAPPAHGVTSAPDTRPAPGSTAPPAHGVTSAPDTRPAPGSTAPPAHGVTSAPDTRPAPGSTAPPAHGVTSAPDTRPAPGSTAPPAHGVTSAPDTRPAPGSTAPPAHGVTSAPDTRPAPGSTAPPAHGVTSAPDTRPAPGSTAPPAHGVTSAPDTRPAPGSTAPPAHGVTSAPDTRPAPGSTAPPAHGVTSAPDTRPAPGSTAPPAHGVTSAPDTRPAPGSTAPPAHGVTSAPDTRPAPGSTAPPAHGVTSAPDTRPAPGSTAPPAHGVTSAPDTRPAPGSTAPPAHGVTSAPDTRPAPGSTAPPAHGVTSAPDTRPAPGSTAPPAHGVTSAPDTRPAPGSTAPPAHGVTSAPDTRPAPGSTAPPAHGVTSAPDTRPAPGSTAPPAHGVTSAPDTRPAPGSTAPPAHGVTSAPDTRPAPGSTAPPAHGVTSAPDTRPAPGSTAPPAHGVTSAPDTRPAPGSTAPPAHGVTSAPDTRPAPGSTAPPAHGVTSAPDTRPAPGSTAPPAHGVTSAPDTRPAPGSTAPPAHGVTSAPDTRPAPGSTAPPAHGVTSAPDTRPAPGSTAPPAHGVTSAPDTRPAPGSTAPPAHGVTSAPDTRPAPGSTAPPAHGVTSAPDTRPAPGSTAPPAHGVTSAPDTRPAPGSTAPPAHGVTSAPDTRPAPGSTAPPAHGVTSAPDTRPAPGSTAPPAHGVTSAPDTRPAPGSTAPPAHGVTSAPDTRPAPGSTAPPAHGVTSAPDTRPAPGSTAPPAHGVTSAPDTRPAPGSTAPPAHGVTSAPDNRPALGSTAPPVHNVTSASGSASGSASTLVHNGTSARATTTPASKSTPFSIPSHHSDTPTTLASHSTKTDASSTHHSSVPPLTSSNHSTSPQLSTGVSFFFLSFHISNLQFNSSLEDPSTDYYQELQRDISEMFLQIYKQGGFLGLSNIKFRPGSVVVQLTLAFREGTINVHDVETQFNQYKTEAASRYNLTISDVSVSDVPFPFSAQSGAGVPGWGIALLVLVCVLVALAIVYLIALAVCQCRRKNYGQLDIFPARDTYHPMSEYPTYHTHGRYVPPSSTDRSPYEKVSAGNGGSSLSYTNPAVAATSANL

B1: humanized antibody PankoMab (with Fab glycosylation) (antibody, human IgG1, kappa)
heavy: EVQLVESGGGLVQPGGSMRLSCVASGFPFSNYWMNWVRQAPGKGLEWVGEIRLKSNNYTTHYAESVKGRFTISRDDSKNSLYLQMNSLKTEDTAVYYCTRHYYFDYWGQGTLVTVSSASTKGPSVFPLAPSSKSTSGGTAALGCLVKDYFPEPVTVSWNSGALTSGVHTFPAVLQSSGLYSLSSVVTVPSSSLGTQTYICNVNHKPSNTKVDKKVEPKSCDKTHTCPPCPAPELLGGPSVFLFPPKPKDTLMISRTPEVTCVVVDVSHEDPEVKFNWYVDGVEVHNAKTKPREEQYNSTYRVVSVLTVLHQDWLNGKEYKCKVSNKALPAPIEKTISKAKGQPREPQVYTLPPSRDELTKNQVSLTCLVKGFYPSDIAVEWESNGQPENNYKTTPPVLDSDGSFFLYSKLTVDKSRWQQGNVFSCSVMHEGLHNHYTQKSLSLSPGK
light: DIVMTQSPLSNPVTPGEPASISCRSSKSLLHSNGITYFFWYLQKPGQSPQLLIYQMSNLASGVPDRFSGSGSGTDFTLRISRVEAEDVGVYYCAQNLELPPTFGQGTKVEIKRTVAAPSVFIFPPSDEQLKSGTASVVCLLNNFYPREAKVQWKVDNALQSGNSQESVTEQDSKDSTYSLSSTLTLSKADYEKHKVYACEVTHQGLSSPVTKSFNRGEC
modifications: N-glycan on Asn54 (Kabat/EU numbering; amino acid position 57) in CDR-H2
notes: IgG1 kappa made in NM-H9D8 cells (for the FcγRIIIa assay also in NM-H9D8-E6Q12, low fucose); also called PM; PankoMab-GEX®
- EC50 (read off the curve) [1]: ~300 ng/mL
- Ka [2]: 1.2e+07 M⁻¹
- EC50 (read off the curve) [3]: ~3 ng/mL
- Ka [4]: 3e+07 M⁻¹

B2: PankoMab N54D (antibody, V domains shown)
VH: EVQLVESGGGLVQPGGSMRLSCVASGFPFSNYWMNWVRQAPGKGLEWVGEIRLKSNDYTTHYAESVKGRFTISRDDSKNSLYLQMNSLKTEDTAVYYCTRHYYFDYWGQGTLVTVSS
VL: DIVMTQSPLSNPVTPGEPASISCRSSKSLLHSNGITYFFWYLQKPGQSPQLLIYQMSNLASGVPDRFSGSGSGTDFTLRISRVEAEDVGVYYCAQNLELPPTFGQGTKVEIKR
notes: Light chain unchanged; also called PM-N54D
- EC50 (read off the curve) [3]: ~4 ng/mL

B3: humanized antibody PankoMab N54Q (without Fab glycosylation) (antibody, human IgG1, kappa)
heavy: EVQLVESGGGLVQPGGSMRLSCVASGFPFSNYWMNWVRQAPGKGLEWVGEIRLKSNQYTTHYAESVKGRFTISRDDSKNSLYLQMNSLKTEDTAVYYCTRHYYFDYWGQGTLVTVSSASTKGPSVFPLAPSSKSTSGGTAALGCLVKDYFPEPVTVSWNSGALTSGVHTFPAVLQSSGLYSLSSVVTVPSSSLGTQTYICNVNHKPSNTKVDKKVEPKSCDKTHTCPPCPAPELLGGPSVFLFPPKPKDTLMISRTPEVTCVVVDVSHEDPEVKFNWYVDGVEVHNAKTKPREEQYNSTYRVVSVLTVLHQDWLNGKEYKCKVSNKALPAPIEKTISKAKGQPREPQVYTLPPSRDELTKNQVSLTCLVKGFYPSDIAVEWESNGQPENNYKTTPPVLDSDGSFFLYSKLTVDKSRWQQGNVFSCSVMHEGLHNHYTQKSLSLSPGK
light: DIVMTQSPLSNPVTPGEPASISCRSSKSLLHSNGITYFFWYLQKPGQSPQLLIYQMSNLASGVPDRFSGSGSGTDFTLRISRVEAEDVGVYYCAQNLELPPTFGQGTKVEIKRTVAAPSVFIFPPSDEQLKSGTASVVCLLNNFYPREAKVQWKVDNALQSGNSQESVTEQDSKDSTYSLSSTLTLSKADYEKHKVYACEVTHQGLSSPVTKSFNRGEC
notes: IgG1 kappa; Made in NM-H9D8 cells (for the FcγRIIIa assay also in NM-H9D8-E6Q12, low fucose); also called PM-N54Q; PM N54Q w/o Fab glyc
- fold higher binding than PankoMab-GEX® [5]: > 2.5 fold
- EC50 (read off the curve) [1]: ~100 ng/mL
- Ka [2]: 3.4e+07 M⁻¹
- EC50 (read off the curve) [3]: ~2 ng/mL
- Ka [4]: 7.8e+07 M⁻¹

Source: patent US20250257149A1 (GLYCOTOPE, published 2025)
